Laboratory results: PMC9712074

Target: SA58 (BD55-5840), human IgG1 (human)
Assay: SPR

“SARS-CoV-2 (BA.4/BA.5) Spike RBD Protein (His Tag) (from UniProt P0DTC2) (domain or fragment)” showed a Kd of 0.96 nM.
